Reference: doi:10.1101/2025.04.07.647567 (bioRxiv, 2025)

Key:
[1] = biological target: recombinant human AXL, biotinylated (human) (UniProt P30530); assay: SPR
AXL in mouse lung tissue = biological target: T1, AXL in mouse lung tissue (mouse (endogenous in mouse lung tissue), UniProt Q00993 19-888); assay: FRET or BRET
T1 sequence: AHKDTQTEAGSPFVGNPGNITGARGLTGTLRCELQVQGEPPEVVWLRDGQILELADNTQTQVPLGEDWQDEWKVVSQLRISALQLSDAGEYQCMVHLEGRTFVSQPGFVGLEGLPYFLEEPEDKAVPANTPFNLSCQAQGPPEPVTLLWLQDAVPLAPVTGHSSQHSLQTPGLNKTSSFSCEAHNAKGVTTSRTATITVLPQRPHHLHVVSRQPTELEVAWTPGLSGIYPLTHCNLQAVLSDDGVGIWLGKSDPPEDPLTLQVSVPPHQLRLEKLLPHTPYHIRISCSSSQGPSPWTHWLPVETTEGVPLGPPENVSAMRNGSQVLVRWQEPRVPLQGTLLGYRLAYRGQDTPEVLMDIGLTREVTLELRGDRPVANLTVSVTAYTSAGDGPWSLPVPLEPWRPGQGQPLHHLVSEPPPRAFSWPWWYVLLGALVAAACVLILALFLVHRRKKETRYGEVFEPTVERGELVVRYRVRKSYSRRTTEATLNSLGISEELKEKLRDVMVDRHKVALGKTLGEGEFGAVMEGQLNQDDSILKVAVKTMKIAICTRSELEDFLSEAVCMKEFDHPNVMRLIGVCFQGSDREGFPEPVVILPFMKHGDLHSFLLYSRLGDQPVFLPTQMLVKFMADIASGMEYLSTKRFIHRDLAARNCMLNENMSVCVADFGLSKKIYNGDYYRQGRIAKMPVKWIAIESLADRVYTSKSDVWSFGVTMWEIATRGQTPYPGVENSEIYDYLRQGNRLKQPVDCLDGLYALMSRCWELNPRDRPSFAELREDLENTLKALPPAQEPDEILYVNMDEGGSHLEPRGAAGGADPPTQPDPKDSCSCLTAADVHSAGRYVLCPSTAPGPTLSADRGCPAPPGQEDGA

Sequence of recombinant human AXL, biotinylated (human) (P30530 26-894): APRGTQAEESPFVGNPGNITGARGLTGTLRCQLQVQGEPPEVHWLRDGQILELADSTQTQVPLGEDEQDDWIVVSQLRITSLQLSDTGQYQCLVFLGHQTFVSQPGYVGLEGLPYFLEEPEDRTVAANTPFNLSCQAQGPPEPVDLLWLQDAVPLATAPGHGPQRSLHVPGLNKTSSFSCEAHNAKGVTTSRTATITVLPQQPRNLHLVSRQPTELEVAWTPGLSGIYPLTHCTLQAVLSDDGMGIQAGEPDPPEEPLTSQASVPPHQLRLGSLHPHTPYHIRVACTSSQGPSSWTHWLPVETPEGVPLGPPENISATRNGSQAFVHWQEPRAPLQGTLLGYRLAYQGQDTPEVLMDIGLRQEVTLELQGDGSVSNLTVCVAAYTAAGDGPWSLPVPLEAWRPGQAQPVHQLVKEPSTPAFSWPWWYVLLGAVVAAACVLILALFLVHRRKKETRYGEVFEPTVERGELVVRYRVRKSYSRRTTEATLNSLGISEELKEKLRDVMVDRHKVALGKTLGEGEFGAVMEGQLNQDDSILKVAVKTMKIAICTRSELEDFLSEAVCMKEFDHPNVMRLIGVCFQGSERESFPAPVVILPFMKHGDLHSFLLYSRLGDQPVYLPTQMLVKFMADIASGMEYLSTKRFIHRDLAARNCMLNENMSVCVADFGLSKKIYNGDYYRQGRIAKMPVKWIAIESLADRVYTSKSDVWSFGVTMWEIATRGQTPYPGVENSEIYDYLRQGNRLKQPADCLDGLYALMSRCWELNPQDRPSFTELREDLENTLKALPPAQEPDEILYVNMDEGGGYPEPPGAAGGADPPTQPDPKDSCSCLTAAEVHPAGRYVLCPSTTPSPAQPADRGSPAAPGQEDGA

Molecule “recombinant human GAS6 (from UniProt Q14393 31-678) (ligand)” has a Kd [1] of 0.11 nM.

Molecule “recombinant human PROS1 (from UniProt P07225 42-676) (ligand)” has a Kd [1] of 52.1 nM.

B1: GAS6 in mouse lung tissue (ligand)
chain: VLLRAREAAQFLRPRQRRAYQVFEEAKQGHLERECVEEVCSKEEAREVFENDPETEYFYPRYQECMRKYGRPEEKNPDFAKCVQNLPDQCTPNPCDKKGTHICQDLMGNFFCVCTDGWGGRLCDKDVNECVQKNGGCSQVCHNKPGSFQCACHSGFSLASDGQTCQDIDECTDSDTCGDARCKNLPGSYSCLCDEGYTYSSKEKTCQDVDECQQDRCEQTCVNSPGSYTCHCDGRGGLKLSPDMDTCEDILPCVPFSMAKSVKSLYLGRMFSGTPVIRLRFKRLQPTRLLAEFDFRTFDPEGVLFFAGGRSDSTWIVLGLRAGRLELQLRYNGVGRITSSGPTINHGMWQTISVEELERNLVIKVNKDAVMKIAVAGELFQLERGLYHLNLTVGGIPFKESELVQPINPRLDGCMRSWNWLNGEDSAIQETVKANTKMQCFSVTERGSFFPGNGFATYRLNYTRTSLDVGTETTWEVKVVARIRPATDTGVLLALVGDDDVVPISVALVDYHSTKKLKKQLVVLAVEDVALALMEIKVCDSQEHTVTVSLREGEATLEVDGTKGQSEVSTAQLQERLDTLKTHLQGSVHTYVGGLPEVSVISAPVTAFYRGCMTLEVNGKILDLDTASYKHSDITSHSCPPVEHATP
In the case of B1, the “FRET efficiency (%Ef) of one coincident region” value (AXL in mouse lung tissue) is reported as 6.96%.
